Experimental data taken from article PMC11533990.

Target: Full-length wild-type (WT) OaPAC, photoactivated adenylate cyclase from Oscillatoria acuminata (Oscillatoria acuminata)
Assay: crystal structure; serial femtosecond crystallography (SFX) at the European XFEL, room temperature (294 K), microcrystals grown in 0.06 M divalents (MgCl2/CaCl2), 0.1 M Tris-Bicine pH 8.5, 30% PEG 550 MME/PEG 20 000; space group P2(1)2(1)2, one monomer in the asymmetric unit, dimer by crystal symmetry; 1.75 A

- stoichiometry N: 2
Substance: Full-length wild-type (WT) OaPAC, photoactivated adenylate cyclase from Oscillatoria acuminata (enzyme)
